From the nanobody polyreactivity screen of Harvey et al. (2022)

Test: yeast display, Sf9 membrane polyspecificity reagent, FACS + sequencing; frameworks hold sequencing errors
Summary of the method: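 Using colony PCR, genes from sorted yeast display clones were amplified, then sequenced on MiSeq at 2 × 250 and filtered by CDR length. The clones had been stained with 10% biotinylated, detergent-solubilized Sf9 membrane reagent for 1 hour at 4 °C and sorted by FACS into low and high (top ~1%) gates on anti-HA and streptavidin fluorescence. Polyreactivity labels come from the gate of origin.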

Sequence	polyreactivity (PSR sort gate)
QVQLVESGGGLVQAGGSLRLSCAASGRTFYYYAMGWYRQAPGKERELVAGISWSAGSTYYADSVKGRFTISRDNAKNTVYLQMNSLKPEDTAVYYCAARYWQSYRSQVTHSSTLDYWGQGTQVTVSS	low polyreactivity
QVQLVESGGGLVQAGGSLRLSCAASGRTFYYYAMGWYRQAPGKERELVARIRSGGSTNYADSVKGRFTISRDNAKNTVYLQMNSLKPEDTAVYYCNSMGAKGYVKGFDYWGQGTQVTVSS	low polyreactivity
QVQLVESGGGLVQAGGSLRLSCAASGRTFYYYAMGWYRQAPGKERELVATITKSSGSTSYADSVKGRFTISRDNAKNTVYLQMNSLKPEDSAVYSCARRIKWGKFKGWNYPAHNYWGQGTQVTVSS	high polyreactivity
QVQLVESGGGLVQAGGSLRLSCAASGRTFYYYARGWYRQAPGKEREVVASITSGDGTYYADSVQGRFTISRDYAQNTVYLQMNSLKPEATAVYYCAADIFYKFSYYPWYPYRDYYYWGQGTQVTVSS	low polyreactivity
QVQLVESGGGLVQAGGSLRLSCAASGRTFYYYTMGWYRPAPGKERELVAAISSTGNTYYADSVKGRFTISRDNAKNTVYLQMNSLKPEDTAVYYCAALRYVNLLAQAYEYWGQGTQVTVSS	high polyreactivity
QVQLVESGGGLVQAGGSLRLSCAASGRTFYYYTMGWYRQAPGKEREFVAAIRRSGGNTRYADSVKGRFTISRDNAKNTVYLQMNSLKPEDTAVYYCNAGYGYYYGRILQERDYWGQGTQVTVSS	high polyreactivity
QVQLVESGGGLVQAGGSLRLSCAASGRTFYYYVMGWYRQAPGKERELVAAINSGGNTNYADSVKGRFTISRDNAKNTVYLQMNSLKPEDTAVYYCAADHYRSFRYFESSSTHDYWGQGTQVNVSS	low polyreactivity
QVQLVESGGGLVQAGGSLRLSCAASGRTGVNAMGWYRQAPGKERELVAAINNGDSTYYADSVKGRFTISRDNAKKTVYLQMNSLNPEDTAVYYCAAGLDEGDYWQESDYWGQGTQVTVSS	low polyreactivity
QVQLVESGGGLVQAGGSLRLSCAASGRTIASYTMGWYRQAPGKERELVAAISKSGGSTYYADSVKGRFTISRDNAKNTVYLQMNSLKPEDTAVYYCAKRRSGNVRKYDYWGQGTQVTVSS	high polyreactivity
QVQLVESGGGLVQAGGSLRLSCAASGRTIAYNAMGWYRQAPGKERELVAAISWSGGSTYYADSVKGRFTISRDNAKNTVYLQMNSLKPEDTAVYYCAKRFGQYRYPYDYWGQGTQVTVSS	high polyreactivity
QVQLVESGGGLVQAGGSLRLSCAASGRTIDHYAMGWYRQAPGKERELVAAISTTGGSTYYADSVKGRFTISRDNAKNTVYLQMNSLKPEDTAVYYCAARQRYFWYTTNYNYWGQGTQVTVSS	high polyreactivity
QVQLVESGGGLVQAGGSLRLSCAASGRTIDPNAMGWYRQAPGKERELVAAITRTGVRTYYADSVKGRFTISRDNAKNTVYLQMNSLKPEDTAVYYCNRYGARSNDYWGQGNQVTVSS	low polyreactivity
QVQLVESGGGLVQAGGSLRLSCAASGRTIDSNAMGWYRQAPGKERELVAAISSDGGSTYYADSVKGRFTISRDNAKNTVYLQMNSLKPEDTAVYYCNKDDPVDGPLYFRKYDYWGQGTQVTVSS	low polyreactivity
QVQLVESGGGLVQAGGSLRLSCAASGRTIDYNGMGWYRQAPGKERELVAVISTSGGSTFYADSVKGRFTISRDNAKKTVYLQMNSLKPEDTAVYYCAADFIVAYTLHGSYDYWGQGTQVTVSS	low polyreactivity
QVQLVESGGGLVQAGGSLRLSCAASGRTIEGYAMGCYRQAPGKERELVAAISRRGGSTYYADSVKGRFTISRDNAKNTVYLQMNSLKPEDTAVYYCAARDGSTGAVRYYYWGQGTQVTVSS	high polyreactivity
QVQLVESGGGLVQAGGSLRLSCAASGRTIEHSAMGWYRQAPGKERELVAAINSSDGGTYYADSVKGRFTISRDNPKNTVYLQMNSLKPEDTAVYYCAAAEFGSVPGYEMDYWGHGTQVTVSS	low polyreactivity
QVQLVESGGGLVQAGGSLRLSCAASGRTIEQYDMGWYRQAPGKDRELVAAISWRGGGTYYADSVKGRFTISRDNAKNTVYLQMNSLKPEDTAVYYCAKKSHTTDEGYDYWGQGTQVTVSS	low polyreactivity
QVQLVESGGGLVQAGGSLRLSCAASGRTIEWYAMGWYRQAPGKEREFVARISGIGGSTYYADSVKGRFTISRDKAENTVYLQMNSLKPEDTAVYYCAAVSYFGYYYWGQGTQVTVSS	high polyreactivity
QVQLVESGGGLVQAGGSLRLSCAASGRTIEYNAMGWYRQAPGKEREFVAAITYSGGGTYYADSVKGRFTISRDNAKNTVYLQMNSLKPEDTAVYYCARERTRVHKHYYWGQGTQVTVSS	low polyreactivity
QVQLVESGGGLVQAGGSLRLSCAASGRTIGKNAMGWYRQAPGKERELVAAISWRGGSTRYADSVKGRFTISRDNAKNTVYLQMNSLKPEDTAVYYCAVRFLTYWHGSYWYDYWGQGTQVTVSS	high polyreactivity
QVQLVESGGGLVQAGGSLRLSCAASGRTIGPYAMGWYRQAPGKERELVAAISGGGSTNYADSVKGRFTISRDNAKNTVSLQMKSLKPEDTAVYYCNTEYPISGEEEYWGQGTQVTVSS	low polyreactivity
QVQLVESGGGLVQAGGSLRLSCAASGRTIKYYAMGWYRQAPGKERELVAVITYGGSTDYADSVKGRFTISRDNAKNTVYLQLNSLKPEDTAVYYCAAGFGRHYWGYDSWGQGTQVTVSS	low polyreactivity

Sequence	polyreactivity (PSR sort gate)
QVQLVESGGGLVQAGGSLRLSCAASGRTILGYTMGWYRQAPGKESEFVAAITFSGDSTYYADSVKGRFTISRDKAKNTVYLQMNSLKPEDTAVYYCAAAIPRFSAGHYDYWGQGTQVTVSS	high polyreactivity
QVQLVESGGGLVQAGGSLRLSCAASGRTINRYAMGCYRHAPGKERELVAAINSVGSTYYADSVKGRFTISRDNAKYTVYLQMNSLKPEDTAVFYCNAVQGSRFGYWGEGTQVTVSS	high polyreactivity
QVQLVESGGGLVQAGGSLRLSCAASGRTIPAYAMGWYRQAPGKERELVAAISWGGGSTYYADSVKGRFTISRDNAKNTVYLQMNSLKPEDTAVYYCAVAGYWFAVAEYDYWGQGTQVTVSS	low polyreactivity
QVQLVESGGGLVQAGGSLRLSCAASGRTIRLYAMGWYRQAPGQERELVAAITRGGRTNYADSVKGRFTISRDNAKNTVYLQMNSLKPEDTAVYYCAARYVERHTDYYYWGQGTQVTVSS	low polyreactivity
QVQLVESGGGLVQAGGSLRLSCAASGRTIRWNAMGWYRQAPGKERELVAAIDSVDNTYYADSVNGRFTISRDNAKNTVYFQMNSLKPEDTAVYYCARDTYWQVQMDYWGQGTQVTVSS	low polyreactivity
QVQLVESGGGLVQAGGSLRLSCAASGRTIRWNAMGWYRQAPGKERELVGAIDSVDNTYYADSVKGRFTISRYNAKNTVYLQMNSLKPEDTGVYYCARDPYWQVQMDYWGQGTQVTVSS	low polyreactivity
QVQLVESGGGLVQAGGSLRLSCAASGRTIRYYAMGWYRQAPGKERELVAAITWSVGSTYYADSVKGRFTISRDNAKNTVYLQMNSLKPEDTAVYYCAARLYQLYYWGQGTQVTVSS	high polyreactivity
QVQLVESGGGLVQAGGSLRLSCAASGRTISYNTMGWYRQARGKERELVARITWGGGSTNYADSVKGSFTISRDNAKNTVYLQMNSLKPEDTAVYYCAREYSSVYWVRHLFYYWGQGTQVTVSS	low polyreactivity
QVQLVESGGGLVQAGGSLRLSCAASGRTITRYTMGWYRQAPGKERELVAAIRYSGGSTYYADSVKGRFTISRDTAKNTIYLQMNSLKPEDTAVYYCAARSYYYGFLYSYDYWGQGTQVTVSS	low polyreactivity
QVQLVESGGGLVQAGGSLRLSCAASGRTITYYAMGWYRQAPGKERELVAAITWSGGSTYYADSVKGRFTISRDNAKNTVYLQMNSLKPEDTAVDYCAKEFYYSSGFDYWGQGTQVTVSS	low polyreactivity
QVQLVESGGGLVQAGGSLRLSCAASGRTIVTNAMGWYRQAPGKERELVAAITTRGSRTYYADSVKGRFTISRDNAKNTVYLQMNSLKPEDTAVYYCAAKQKHTQQTGWKYEYWGQGTQVTVSS	high polyreactivity
QVQLVESGGGLVQAGGSLRLSCAASGRTIVYYAMGRYRQAPGKERELVAAISSSGSTYYADSVKGRFTISRDNAKNTVYLQMNSLKPEDTAVYYCATTHDYWLWGMGYWGQGTQVTVSS	high polyreactivity
QVQLVESGGGLVQAGGSLRLSCAASGRTIYKYMGWDRQAPGKERELVAAIRWSGGSTYYADSVKGRFTISRDNAKNTVYLQMNSLKPEETAVYYCNVDSYGYKYDYWGQGTQVTVSS	low polyreactivity
QVQLVESGGGLVQAGGSLRLSCAASGRTIYRNAMGWYRQAPGKERELVAAISRSGGRTFYAYSVKGRFTISRDNAKNTVYLQMNSLKPEDTEVYYCADESYGVRLPSGYWGQGTQVTVSS	high polyreactivity
QVQLVESGGGLVQAGGSLRLSCAASGRTLADNAMGWYRQAPGKERELVAAITFSGDTTYYADSVKGRFTISRDNAKNTVYLQMNSLKPEDTAVYYCAAESSDPRAYDYWGQGTQVTVSS	low polyreactivity
QVQLVESGGGLVQAGGSLRLSCAASGRTLARNAMGWYRQAPGKERELVASINGRTTRTYYADSVKGRFTISRDNAKNTVYLQMNSLKPEDPAVYYCAARATNVYSKMDYWGQGTQVTVSS	high polyreactivity
QVQLVESGGGLVQAGGSLRLSCAASGRTLARYAMGGYRQAPGKERELVAAISSSGGSTYYADSVKGRFTISRDNAKNTVYLQMNSLKPEDTAVYYCAAGWRYRYFRSRNFYPYYYWGQGTQVTVSS	high polyreactivity
QVQLVESGGGLVQAGGSLRLSCAASGRTLASYGMGWYRQAPGKERELVAAISSRGGTTYYADSVKGRFTISRDNAKNTVYLQMNSLKPEDTAVYYCAKPGRYWGQGTQVTVSS	high polyreactivity
QVQLVESGGGLVQAGGSLRLSCAASGRTLATYAMGWYRQAPGKERELVADISWRGGTTYYADSVKGRFTISRDNAKNTVYLQMNSLKPEDTAVYYCAKRFLFHSYYWGQGSQVTVSS	high polyreactivity
QVQLVESGGGLVQAGGSLRLSCAASGRTLDLYAMGWYRQAPGKERELVAAISWRGGRTYYADSVKGRFTISRDNAQTTVYLQMNSLKPEDTAVYYCKADYPWSVVGYDYWGQGTQVSVSS	low polyreactivity
QVQLVESGGGLVQAGGSLRLSCAASGRTLDSNAMGWYRQAPGKERELVAAISSAGSTNYADSVKGRFTISRDNAKNTVYLQMNRLQPEDTAVYYCAADLIGSHDYWGQGTQVTVSS	low polyreactivity
